Test results as given in patent US20230250148A1 (published 2023).
Read-outs that look alike come from different tables or passages of the source.

Assays:
[1] = target: T1, biotinylated recombinant human Fc(gamma)RI (human, UniProt P12314 16-288, biotinylated, site not stated); experiment: ELISA, fusion protein coated, biotinylated rhFc(gamma)RI in solution
T1 construct: Bought reagent; construct not described; also called rhFc(gamma)RI; Fc(gamma) receptor I

[2] = target: T1, biotinylated recombinant human …; experiment: as above; remark: listed apart in the source
Method: (§1) The binding of insulin-Fc fusion proteins to the Fc(gamma)RI at pH 7.4 is conducted using an ELISA assay as follows using human Fc(gamma)RI (i.e., rhFc(gamma)RI). Insulin-Fc fusion proteins are diluted to 10 µg/mL in sodium bicarbonate buffer at pH 9.6 and coated on Maxisorp (Nunc) microtiter plates overnight at 4° C., after which the microplate strips are washed 5 times with PBST (PBS/0.05% Tween-20) buffer and blocked with Superblock blocking reagent (ThermoFisher). Serial dilutions of biotinylated rhFc(gamma)RI (recombinant human Fc(gamma)RI; R&D Systems) are prepared in PBST/10% Superblock buffer from 3000 ng/mL to 4.1 ng/mL and loaded at 100 µL/well onto the microplate strips coated with insulin-Fc fusion protein. The microtiter plate is incubated for 1 hour at room temperature after which time the microplate strips are washed 5 times with PBST and then loaded with 100 µL/well of streptavidin-HRP diluted 1:10000 in PBST/10% Superblock buffer. After incubating for 45 min, the microplate strips are washed again 5 times with PBST. TMB is added to reveal the bound Fc(gamma)RI proteins and is stopped with ELISA stop reagent (Boston Bioproducts). The plate is read in an ELISA plate reader at 450 nm, and the OD450 values (proportional to the binding of rhFc(gamma)RI to insulin-Fc protein) are plotted against log concentrations of rhFc(gamma)RI added to each well to generate binding curves using GraphPad Prism software. For groupings of compounds with somewhat similar curves, the OD450 at one of the higher concentrations, for instance at rhFc(gamma)RI concentrations of 3000 ng/mL, can be used to identify differences between coated insulin-Fc fusion protein compounds. […]

[3] = target: T2, human insulin receptor (IR) on human IM-9 cells (human, UniProt P06213 28-1382); experiment: competition with biotinylated RHI on IM-9 cells, flow cytometry, 4 C
T2 construct: whole, on cells; also called human IR
Method: (§2) 40 µL of an IM-9 cell suspension (8×10⁶ cells/mL) was then added to each well by multichannel pipette, mixed again gently and incubated on ice for 30 min to allow competitive binding on the IR on IM-9 cells. Cells were then washed twice with 275µL of ice-cold FACS wash buffer (HBSS/2mM EDTA/0.1% Na-azide + 0.5% horse serum) by centrifuging the V-bottom plate at 3000 rpm for 3 min and aspirating the supernatant. Cells were then resuspended in 40µL of FACS staining medium containing 1:100 diluted Streptavidin-PE (Life Technologies) for 20 min on ice. Cells were then washed once with 275 µL of ice-cold FACS buffer and finally fixed with 3% paraformaldehyde for 10 min at room temp. Cells were then washed once with 275 µL of ice-cold FACS buffer and resuspended in 250µl of FACS buffer for analysis.
(§3) The two insulin-Fc fusion proteins were manufactured in HEK293 cells according to Example 1 and purified using a Protein A column according to Example 4. Their structures were confirmed according to Example 6 by non-reducing and reducing CE-SDS, and the sequences were further identified by LC-MS with glycan removal according to Example 8. Their %homodimer content was measured by size-exclusion chromatography according to Example 10, and their insulin receptor binding affinities were measured according to Example 12.

[4] = target: T2, human insulin receptor (IR) on human …; experiment: as above; remark: listed apart in the source
Method: as §2
as §3, with “The” for “The two”

[5] = target: T1, biotinylated recombinant human …; experiment: ELISA, fusion protein coated, biotinylated rhFc(gamma)RI at 3000 ng/mL
Method: as §1
Finally, select compounds were tested for their likelihood to interact with the immune system by measuring their Fc(gamma) receptor binding activity according to the procedure of Example 15.

T2 sequence (P06213 28-1382): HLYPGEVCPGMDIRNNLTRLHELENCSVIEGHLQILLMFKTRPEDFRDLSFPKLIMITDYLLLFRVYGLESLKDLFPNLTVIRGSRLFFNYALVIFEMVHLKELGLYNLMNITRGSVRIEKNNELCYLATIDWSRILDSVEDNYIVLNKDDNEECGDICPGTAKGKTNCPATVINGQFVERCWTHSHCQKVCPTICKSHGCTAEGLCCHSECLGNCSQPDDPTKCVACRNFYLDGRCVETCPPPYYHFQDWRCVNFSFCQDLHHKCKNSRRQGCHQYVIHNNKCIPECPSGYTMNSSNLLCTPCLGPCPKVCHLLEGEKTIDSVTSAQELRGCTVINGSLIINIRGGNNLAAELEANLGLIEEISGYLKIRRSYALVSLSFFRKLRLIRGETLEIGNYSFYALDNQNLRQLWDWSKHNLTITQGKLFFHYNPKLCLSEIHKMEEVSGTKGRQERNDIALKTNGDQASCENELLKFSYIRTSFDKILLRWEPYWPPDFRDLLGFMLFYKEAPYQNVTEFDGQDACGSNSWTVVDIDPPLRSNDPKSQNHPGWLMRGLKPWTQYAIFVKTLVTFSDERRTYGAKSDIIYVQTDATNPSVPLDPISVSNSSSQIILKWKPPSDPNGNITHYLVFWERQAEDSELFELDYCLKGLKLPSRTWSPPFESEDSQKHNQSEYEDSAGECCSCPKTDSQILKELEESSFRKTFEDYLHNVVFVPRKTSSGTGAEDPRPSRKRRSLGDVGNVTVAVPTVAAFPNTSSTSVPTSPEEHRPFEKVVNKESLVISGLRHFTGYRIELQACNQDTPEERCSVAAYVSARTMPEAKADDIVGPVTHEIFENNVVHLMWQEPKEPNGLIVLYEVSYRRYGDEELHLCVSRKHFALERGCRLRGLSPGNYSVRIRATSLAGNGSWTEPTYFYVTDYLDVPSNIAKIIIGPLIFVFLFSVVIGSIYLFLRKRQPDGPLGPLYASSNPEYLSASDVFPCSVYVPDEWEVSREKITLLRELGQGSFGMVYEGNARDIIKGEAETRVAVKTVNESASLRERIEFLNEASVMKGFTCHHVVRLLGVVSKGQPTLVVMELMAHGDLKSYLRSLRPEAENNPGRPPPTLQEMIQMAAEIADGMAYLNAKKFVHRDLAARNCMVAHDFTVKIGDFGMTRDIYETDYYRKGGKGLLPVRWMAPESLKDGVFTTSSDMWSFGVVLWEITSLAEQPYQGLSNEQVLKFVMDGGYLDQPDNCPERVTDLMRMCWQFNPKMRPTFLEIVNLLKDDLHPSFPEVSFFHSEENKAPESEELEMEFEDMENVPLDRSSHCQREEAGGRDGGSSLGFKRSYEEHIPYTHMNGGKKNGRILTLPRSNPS
T1 sequence (P12314 16-288 limits assumed): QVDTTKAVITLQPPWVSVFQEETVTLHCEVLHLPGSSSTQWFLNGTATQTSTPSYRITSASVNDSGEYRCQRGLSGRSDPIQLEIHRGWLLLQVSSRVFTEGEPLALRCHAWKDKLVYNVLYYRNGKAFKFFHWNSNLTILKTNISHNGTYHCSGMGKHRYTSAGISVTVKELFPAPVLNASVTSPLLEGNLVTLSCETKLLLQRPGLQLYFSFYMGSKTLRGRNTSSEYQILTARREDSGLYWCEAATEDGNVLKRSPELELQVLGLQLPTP

| OD450nm [2] | OD450nm minus assay background [2] | ratio to SEQ ID NO: 36 [2] | IC50 [3] | IC50 [4] | OD450nm [5] | OD450nm minus assay background [5] | ratio to SEQ ID NO: 36 [5] | further results | Binder |
| --- | --- | --- | --- | --- | --- | --- | --- | --- | --- |
| 0.14 | 0.077 | 0.24 | – | – | – | – | – | fold lower Fc(gamma)RI binding against SEQ ID NO: 36 [1]: 4 fold | insulin-Fc fusion protein of SEQ ID NO: 40 (Fc fusion, non-glycosylated) FVNQHLCGSDLVEALALVCGERGFFYTDPTGGGPRRGIVEQCCHSICSLYQLENYCNGGGGAGGGGDCPKCPAPEMLGGPSVFIFPPKPKDTLLIARTPEVTCVVVDLDPEDPEVQISWFVDGKQMQTAKTQPREEQFSGTYRVVSVLPIGHQDWLKGKQFTCKVNNKALPSPIERTISKARGQAHQPSVYVLPPSREELSKNTVSLTCLIKDFFPPDIDVEWQSNGQQEPESKYRTTPPQLDEDGSYFLYSKLSVDKSRWQRGDTFICAVMHEALHNHYTQESLSHSPG |
| 0.204 | 0.141 | 0.44 | – | – | – | – | – | fold Fc(gamma) receptor binding activity against SEQ ID NO: 40 and SEQ ID NO: 42 [1]: ~2 fold | insulin-Fc fusion protein of SEQ ID NO: 41 (Fc fusion, non-glycosylated) FVNQHLCGSDLVEALALVCGERGFFYTDPTGGGPRRGIVEQCCHSICSLYQLENYCNGGGGAGGGGDCPKCPAPEMLGGPSVFIFPPKPKDTLLIARTPEVTCVVVDLDPEDPEVQISWFVDGKQMQTAKTQPREEQFDGTYRVVSVLPIGHQDWLKGKQFTCKVNNKALPSPIERTISKARGQAHQPSVYVLPPSREELSKNTVSLTCLIKDFFPPDIDVEWQSNGQQEPESKYRTTPPQLDEDGSYFLYSKLSVDKSRWQRGDTFICAVMHEALHNHYTQESLSHSPG |
| – | – | – | > 5000 nM | – | – | – | – | – | insulin-Fc fusion protein of SEQ ID NO: 48 (Fc fusion) FVNQHLCGSHLVEALALVCGERGFFYTDPTGGGPRRGIVEQCCTSICSLYQLENYCGGGGAGGGGDCPKCPAPEMLGGPSVFIFPPKPKDTLLIARTPEVTCVVVDLDPEDPEVQISWFVDGKQMQTAKTQPREEQFSGTYRVVSVLPIGHQDWLKGKQFTCKVNNKALPSPIERTISKARGQAHQPSVYVLPPSREELSKNTVSLTCLIKDFFPPDIDVEWQSNGQQEPESKYRTTPPQLDEDGSYFLYSKLSVDKSRWQRGDTFICAVMHEALHNHYTQESLSHSPG |
| – | – | – | 1280 nM | – | – | – | – | – | insulin-Fc fusion protein of SEQ ID NO: 53 (Fc fusion) FVNQHLCGSHLVEALALVCGERGFFYTDPTGGGPRRGIVEQCCTSICSLYQLENYCGGGGGQGGGGQGGGGQGGGGGDCPKCPAPEMLGGPSVFIFPPKPKDTLLIARTPEVTCVVVDLDPEDPEVQISWFVDGKQMQTAKTQPREEQFSGTYRVVSVLPIGHQDWLKGKQFTCKVNNKALPSPIERTISKARGQAHQPSVYVLPPSREELSKNTVSLTCLIKDFFPPDIDVEWQSNGQQEPESKYRTTPPQLDEDGSYFLYSKLSVDKSRWQRGDTFICAVMHEALHNHYTQESLSHSPG |
| – | – | – | – | 2300 nM | 0.175 | 0.118 | 0.32 | – | insulin-Fc fusion protein of SEQ ID NO: 62 (Fc fusion, 71% homodimer) FVNQHLCGSHLVEALELVCGERGFHYGGGGGGSGGGGGIVEQCCTSTCSLDQLENYCGGGGGQGGGGQGGGGQGGGGGDCPKCPAPEMLGGPSVFIFPPKPKDTLLIARTPEVTCVVVDLDPEDPEVQISWFVDGKQMQTAKTQPREEQFSGTYRVVSVLPIGHQDWLKGKQFTCKVNNKALPSPIERTISKARGQAHQPSVYVLPPSREELSKNTVSLTCLIKDFFPPDIDVEWQSNGQQEPESKYRTTPPQLDEDGSYFLYSKLSVDKSRWQRGDTFICAVMHEALHNHYTQESLSHSPG |
| – | – | – | – | 3090 nM | 0.166 | 0.109 | 0.29 | – | insulin-Fc fusion protein of SEQ ID NO: 61 (Fc fusion, 73% homodimer) FVNQHLCGSHLVEALELVCGERGFHYGGGGGGSGGGGGIVEQCCTSTCSLDQLENYCGGGGGQGGGGQGGGGQGGGGGDCPKCPAPEMLGGPSVFIFPPKPKDTLLIARTPEVTCVVVALDPEDPEVQISWFVDGKQMQTAKTQPREEQFSGTYRVVSVLPIGHQDWLKGKQFTCKVNNKALPSPIERTISKARGQAHQPSVYVLPPSREELSKNTVSLTCLIKDFFPPDIDVEWQSNGQQEPESKYRTTPPQLDEDGSYFLYSKLSVDKSRWQRGDTFICAVMHEALHNHYTQESLSHSPG |
